According to PMC9482650, “Quantitative fragmentomics allow affinity mapping of interactomes” (Nature Communications, 2022):

How the values were obtained:
Assay in all cases: holdup assay
Parameters in all cases: key: below the threshold = too weak to quantify, mostly under pKd 3.1 to 4
Details in all cases: plain residues with an end cap or a label only (N-terminal biotin on a linker: ado-ado)
Inadl_6, Q8NI35 = target: Inadl_6, Q8NI35
MAGI2_5, Q86UL8 = target: MAGI2_5, Q86UL8
FRMPD2_2, Q68DX3 = target: FRMPD2_2, Q68DX3
SNX27, Q96L92 = target: SNX27, Q96L92
HTRA1, Q92743 = target: HTRA1, Q92743
DLG2_2, Q15700 = target: DLG2_2, Q15700
GRIP1_3, Q9Y3R0 = target: T1, GRIP1_3, Q9Y3R0
T1 sequence (Q9Y3R0 247-346, limits assumed, looked up): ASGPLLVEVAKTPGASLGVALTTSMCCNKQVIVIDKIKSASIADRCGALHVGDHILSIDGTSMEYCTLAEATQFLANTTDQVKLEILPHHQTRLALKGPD

LIN7C, Q9NUP9 = target: T2, LIN7C, Q9NUP9
T2 sequence (Q9NUP9 88-185, limits assumed, looked up): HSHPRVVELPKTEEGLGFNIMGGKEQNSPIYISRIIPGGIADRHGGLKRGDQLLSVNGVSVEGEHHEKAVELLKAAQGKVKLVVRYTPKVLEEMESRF

LIMK2, P53671 = target: LIMK2, P53671
DFNB31_1, Q9P202 = target: T3, DFNB31_1, Q9P202
T3 sequence (Q9P202 135-233, limits assumed, looked up): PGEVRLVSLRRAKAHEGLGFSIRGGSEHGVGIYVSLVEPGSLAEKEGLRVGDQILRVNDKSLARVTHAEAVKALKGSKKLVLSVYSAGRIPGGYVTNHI

NHERF2_2, Q15599 = target: NHERF2_2, Q15599
APBA3_1, O96018 = target: T4, APBA3_1, O96018
T4 sequence (O96018 389-490, limits assumed, looked up): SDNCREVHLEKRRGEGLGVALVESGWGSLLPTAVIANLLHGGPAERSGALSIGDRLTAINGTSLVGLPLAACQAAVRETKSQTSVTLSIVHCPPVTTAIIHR

MAGI3_2, Q5TCQ9 = target: MAGI3_2, Q5TCQ9
GRID2IP_1, A4D2P6 = target: GRID2IP_1, A4D2P6
Inadl_2, Q8NI35 = target: Inadl_2, Q8NI35
CARD11, Q9BXL7 = target: T5, CARD11, Q9BXL7
T5 sequence (Q9BXL7 662-765, limits assumed, looked up): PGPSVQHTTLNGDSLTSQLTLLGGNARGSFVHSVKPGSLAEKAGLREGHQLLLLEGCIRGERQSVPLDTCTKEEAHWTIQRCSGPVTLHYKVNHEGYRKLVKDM

RAPGEF6, Q8TEU7 = target: T6, RAPGEF6, Q8TEU7
T6 sequence (Q8TEU7 525-625, limits assumed, looked up): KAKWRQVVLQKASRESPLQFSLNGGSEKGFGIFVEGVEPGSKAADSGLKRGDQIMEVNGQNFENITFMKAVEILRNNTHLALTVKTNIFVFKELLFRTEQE

NHERF4_4, Q86UT5 = target: NHERF4_4, Q86UT5
NHERF3_3, Q5T2W1 = target: T7, NHERF3_3, Q5T2W1
T7 sequence (Q5T2W1 238-333, limits assumed, looked up): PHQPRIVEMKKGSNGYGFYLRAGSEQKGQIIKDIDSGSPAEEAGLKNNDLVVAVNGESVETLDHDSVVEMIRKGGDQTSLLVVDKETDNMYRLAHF

PARD3_3, Q8TEW0 = target: PARD3_3, Q8TEW0
GRASP, Q7Z6J2 = target: GRASP, Q7Z6J2
MAGI2_2, Q86UL8 = target: MAGI2_2, Q86UL8
GRIP2_7, Q9C0E4 = target: GRIP2_7, Q9C0E4
LDB3, O75112 = target: LDB3, O75112
GRIP2_4, Q9C0E4 = target: GRIP2_4, Q9C0E4
SHANK1, Q9Y566 = target: T8, SHANK1, Q9Y566
T8 sequence (Q9Y566 658-767, limits assumed, looked up): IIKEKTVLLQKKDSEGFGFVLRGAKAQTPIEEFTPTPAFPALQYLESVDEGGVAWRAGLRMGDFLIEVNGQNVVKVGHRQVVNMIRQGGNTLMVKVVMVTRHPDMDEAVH

HTRA4, P83105 = target: T9, HTRA4, P83105
T9 sequence (P83105 378-476, limits assumed, looked up): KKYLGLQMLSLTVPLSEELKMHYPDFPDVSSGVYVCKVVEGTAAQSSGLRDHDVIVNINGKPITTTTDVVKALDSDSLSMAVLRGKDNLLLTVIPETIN

DLG4_1, P78352 = target: DLG4_1, P78352
Chain of DLG4_1, P78352 (P78352 62-152): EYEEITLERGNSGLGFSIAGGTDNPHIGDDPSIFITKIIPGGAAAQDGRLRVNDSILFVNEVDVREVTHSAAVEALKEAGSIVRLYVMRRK

Chain of NHERF2_2, Q15599 (Q15599 142-238): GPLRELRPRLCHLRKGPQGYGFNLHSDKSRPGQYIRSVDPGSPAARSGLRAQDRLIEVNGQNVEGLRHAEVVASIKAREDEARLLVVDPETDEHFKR
Chain of GRASP, Q7Z6J2 (Q7Z6J2 96-193): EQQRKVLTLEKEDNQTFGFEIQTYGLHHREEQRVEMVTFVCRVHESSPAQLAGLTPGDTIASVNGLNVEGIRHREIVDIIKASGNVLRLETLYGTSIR
Chain of GRIP2_7, Q9C0E4 (Q9C0E4 934-1023): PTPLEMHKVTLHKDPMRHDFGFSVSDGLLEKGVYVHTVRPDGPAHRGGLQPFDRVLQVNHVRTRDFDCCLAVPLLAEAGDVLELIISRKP
Chain of Inadl_2, Q8NI35 (Q8NI35 238-335): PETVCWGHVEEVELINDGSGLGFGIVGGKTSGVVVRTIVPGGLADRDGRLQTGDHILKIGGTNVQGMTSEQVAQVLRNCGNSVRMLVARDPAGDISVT
Chain of NHERF4_4, Q86UT5 (Q86UT5 464-550): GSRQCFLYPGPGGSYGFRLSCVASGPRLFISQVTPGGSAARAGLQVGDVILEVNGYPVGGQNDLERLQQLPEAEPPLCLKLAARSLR
Chain of LDB3, O75112 (O75112 1-94): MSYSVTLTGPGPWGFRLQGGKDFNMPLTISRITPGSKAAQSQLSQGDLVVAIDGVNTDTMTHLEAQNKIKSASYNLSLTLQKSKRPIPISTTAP
Chain of LIMK2, P53671 (P53671 143-248): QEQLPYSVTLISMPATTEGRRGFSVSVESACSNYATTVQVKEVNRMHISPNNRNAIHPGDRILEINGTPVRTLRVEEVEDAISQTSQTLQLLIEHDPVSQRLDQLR
Chain of GRIP2_4, Q9C0E4 (Q9C0E4 446-548): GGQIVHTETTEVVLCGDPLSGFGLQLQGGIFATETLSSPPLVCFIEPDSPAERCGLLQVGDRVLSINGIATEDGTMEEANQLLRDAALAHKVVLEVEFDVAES
Chain of PARD3_3, Q8TEW0 (Q8TEW0 582-685): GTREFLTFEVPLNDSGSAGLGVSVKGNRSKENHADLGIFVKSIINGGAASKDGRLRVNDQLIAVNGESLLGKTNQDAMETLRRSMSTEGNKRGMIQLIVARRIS
Chain of FRMPD2_2, Q68DX3 (Q68DX3 944-1038): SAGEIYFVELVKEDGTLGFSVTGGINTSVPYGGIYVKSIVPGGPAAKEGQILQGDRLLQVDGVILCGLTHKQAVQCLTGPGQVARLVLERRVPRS
Chain of DLG2_2, Q15700 (Q15700 189-283): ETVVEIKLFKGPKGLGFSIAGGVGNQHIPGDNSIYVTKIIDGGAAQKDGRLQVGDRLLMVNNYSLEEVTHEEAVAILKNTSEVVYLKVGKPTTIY
Chain of HTRA1, Q92743 (Q92743 360-477): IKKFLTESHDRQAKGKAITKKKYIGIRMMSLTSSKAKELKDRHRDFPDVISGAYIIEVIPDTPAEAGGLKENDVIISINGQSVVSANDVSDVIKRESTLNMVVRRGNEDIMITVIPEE
Chain of Inadl_6, Q8NI35 (Q8NI35 1058-1167): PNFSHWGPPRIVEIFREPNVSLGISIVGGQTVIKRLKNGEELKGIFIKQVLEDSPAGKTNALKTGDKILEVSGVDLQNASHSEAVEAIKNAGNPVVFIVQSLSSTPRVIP
Chain of GRID2IP_1, A4D2P6 (A4D2P6 1-87): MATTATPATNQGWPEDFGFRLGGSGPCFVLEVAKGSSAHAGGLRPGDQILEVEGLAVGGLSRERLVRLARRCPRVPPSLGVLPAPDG
Chain of MAGI3_2, Q5TCQ9 (Q5TCQ9 398-503): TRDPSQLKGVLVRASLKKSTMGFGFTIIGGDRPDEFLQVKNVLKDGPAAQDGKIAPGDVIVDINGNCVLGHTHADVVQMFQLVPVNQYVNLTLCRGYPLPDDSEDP
Chain of MAGI2_2, Q86UL8 (Q86UL8 410-522): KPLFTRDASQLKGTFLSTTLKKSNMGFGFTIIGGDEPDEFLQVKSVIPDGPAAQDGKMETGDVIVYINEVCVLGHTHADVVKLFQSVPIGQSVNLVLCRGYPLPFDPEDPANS
Chain of MAGI2_5, Q86UL8 (Q86UL8 915-1017): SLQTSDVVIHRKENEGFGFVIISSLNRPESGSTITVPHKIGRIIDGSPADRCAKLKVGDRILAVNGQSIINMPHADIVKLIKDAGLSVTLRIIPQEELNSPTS

EDLEDEWEVI [TECPR2, O15040] was tested, and the pKd (Inadl_6, Q8NI35) was “below the threshold”, the pKd (MAGI2_5, Q86UL8) was “below the threshold” and the pKd (FRMPD2_2, Q68DX3) was “below the threshold”. The pKd (SNX27, Q96L92) was “below the threshold”, the pKd (HTRA1, Q92743) was 5.29 and the pKd (DLG2_2, Q15700) was “below the threshold”. The pKd (GRIP1_3, Q9Y3R0) was “below the threshold”, the pKd (LIN7C, Q9NUP9) was “below the threshold” and the pKd (LIMK2, P53671) was “below the threshold”. For the same binder, the pKd (DFNB31_1, Q9P202) was “below the threshold”, the pKd (NHERF2_2, Q15599) was “below the threshold” and the pKd (APBA3_1, O96018) was “below the threshold”. For the same binder, the pKd (MAGI3_2, Q5TCQ9) was “below the threshold”, the pKd (GRID2IP_1, A4D2P6) was “below the threshold” and the pKd (Inadl_2, Q8NI35) was “below the threshold”. For the same binder, the pKd (CARD11, Q9BXL7) was “below the threshold”, the pKd (RAPGEF6, Q8TEU7) was “below the threshold” and the pKd (NHERF4_4, Q86UT5) was “below the threshold”. For the same binder, the pKd (NHERF3_3, Q5T2W1) was “below the threshold”, the pKd (PARD3_3, Q8TEW0) was 5.6 and the pKd (GRASP, Q7Z6J2) was “below the threshold”. The pKd (MAGI2_2, Q86UL8) was “below the threshold”, the pKd (GRIP2_7, Q9C0E4) was “below the threshold” and the pKd (LDB3, O75112) was “below the threshold”. For the same binder, the pKd (GRIP2_4, Q9C0E4) was “below the threshold”, the pKd (SHANK1, Q9Y566) was “below the threshold” and the pKd (HTRA4, P83105) was “below the threshold”. The pKd (DLG4_1, P78352) was “below the threshold”.
